Blank lines part the entries; values can stand above or below the binder they belong to.
Tests used:
[1] = target: T1, His-tagged soluble cynomolgus monkey CTLA-4 (cynomolgus monkey, UniProt G7PL88 36-161); assay: BIACORE (SPR); His-tagged soluble cynomolgus monkey CTLA-4 captured on anti-PentaHis, binding molecule 12.5-200 nM as analyte; avidity by separate ka/kd 1:1 fit
T1 construct: extracellular domain; also called Cyno CTLA-4
T1 sequence: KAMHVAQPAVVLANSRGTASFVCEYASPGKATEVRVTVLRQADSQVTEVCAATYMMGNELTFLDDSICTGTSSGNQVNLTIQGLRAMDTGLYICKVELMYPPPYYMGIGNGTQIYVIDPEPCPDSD
Method: (§1) Briefly, His-tagged soluble CTLA-4 (an extracellular portion of human or cynomolgus monkey CTLA-4 fused to a histidine-containing peptide) was captured on immobilized anti-PentaHis and then different concentrations (12.5-200 nM) of the CTLA-4 binding molecules were passed over the immobilized CTLA-4 proteins. The kinetics of binding were determined via BIACORE® analysis (affinity by 1:1 Langmuir binding model (simultaneous ka/kd); or avidity by separate ka/kd 1:1 fit).

[2] = target: T1, His-tagged soluble cynomolgus monkey …; assay: BIACORE (SPR); His-tagged soluble cynomolgus monkey CTLA-4 captured on anti-PentaHis, binding molecule 12.5-200 nM as analyte; affinity by 1:1 Langmuir binding model
Method: as §1

[3] = target: T2, human CTLA-4 expressed on the cell surface (human, UniProt P16410 36-223); assay: FACS on Jurkat cells which express huCTLA-4 but not PD-1, anti-human Fc secondary
T2 construct: also called huCTLA-4; CHO cells expressing human CTLA-4
T2 sequence: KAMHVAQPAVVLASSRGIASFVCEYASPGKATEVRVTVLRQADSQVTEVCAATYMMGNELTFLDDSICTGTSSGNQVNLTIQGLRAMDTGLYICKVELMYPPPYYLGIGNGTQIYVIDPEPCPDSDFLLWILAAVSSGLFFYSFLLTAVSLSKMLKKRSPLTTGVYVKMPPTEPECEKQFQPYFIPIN
Source text: Binding of the DART and TRIDENT molecules to human CTLA-4 was detected using anti-human FC secondary Ab (FACS).

[4] = target: T3, His-tagged soluble human PD-1 (human, UniProt Q15116 25-170); assay: ELISA; soluble human PD-1 coated; goat anti-human-Fcgamma-HRP, PICO chemiluminescent substrate
T3 construct: also called hPD-1-His; shPD-1
T3 sequence (Q15116 25-170 limits assumed): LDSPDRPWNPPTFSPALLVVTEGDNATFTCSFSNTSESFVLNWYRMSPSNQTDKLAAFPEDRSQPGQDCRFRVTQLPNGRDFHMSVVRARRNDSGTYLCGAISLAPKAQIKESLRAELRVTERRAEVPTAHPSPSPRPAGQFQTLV
Source text: FIGS. 8A-8D show the results of ELISA studies measuring the binding of serially diluted binding molecules to human CTLA-4 and human PD-1. […] Goat anti-human-Fc-HRP (1:10,000) was employed as the secondary detection molecule to detect binding. FIGS. 8C-8D show the results of a study on the effect of altering orientations and binding domains on binding. […] Goat anti-human-Fcγ-HRP was employed as the secondary detection molecule to detect binding using PICO chemiluminescent substrate.
Goat anti-human-Fcγ-HRP was employed as the secondary detection molecule to detect binding using PICO chemiluminescent substrate.

Kd [1]: 4.9 nM
B1: DART D (bispecific antibody, human IgG4 S228P)
chain 1: EIVLTQSPATLSLSPGERATLSCRASESVDNYGMSFMNWFQQKPGQPPKLLIHAASNQGSGVPSRFSGSGSGTDFTLTISSLEPEDFAVYFCQQSKEVPYTFGGGTKVEIKGGGSGGGGQVQLVESGGGVVQPGRSLRLSCAASGFTFSSYTMHWVRQAPGKGLEWVTFISYDGSNKHYADSVKGRFTVSRDNSKNTLYLQMNSLRAEDTAIYYCARTGWLGPFDYWGQGTLVTVSSGGCGGGEVAACEKEVAALEKEVAALEKEVAALEKESKYGPPCPPCPAPEFLGGPSVFLFPPKPKDTLYITREPEVTCVVVDVSQEDPEVQFNWYVDGVEVHNAKTKPREEQFNSTYRVVSVLTVLHQDWLNGKEYKCKVSNKGLPSSIEKTISKAKGQPREPQVYTLPPSQEEMTKNQVSLTCLVKGFYPSDIAVEWESNGQPENNYKTTPPVLDSDGSFFLYSRLTVDKSRWQEGNVFSCSVMHEALHNHYTQKSLSLSLG
chain 2: not shown
notes: Four-chain Fc Region-containing diabody, two PD-1 sites (PD-1 mAb 6-ISQ) and two CTLA-4 sites (CTLA-4 mAb 3), IgG4 (YTE) Fc, E/K-coils

Kd [2]: 260 nM
B2: TRIDENT A (bispecific antibody, human IgG4 S228P, kappa)
chain 1: EIVLTQSPATLSLSPGERATLSCRASESVDNYGMSFMNWFQQKPGQPPKLLIHAASNQGSGVPSRFSGSGSGTDFTLTISSLEPEDFAVYFCQQSKEVPYTFGGGTKVEIKGGGSGGGGQVQLVQSGAEVKKPGASVKVSCKASGYSFTSYWMNWVRQAPGQGLEWIGVIHPSDSETWLDQKFKDRVTITVDKSTSTAYMELSSLRSEDTAVYYCAREHYGTSPFAYWGQGTLVTVSSGGCGGGEVAACEKEVAALEKEVAALEKEVAALEKESKYGPPCPPCPAPEFLGGPSVFLFPPKPKDTLYITREPEVTCVVVDVSQEDPEVQFNWYVDGVEVHNAKTKPREEQFNSTYRVVSVLTVLHQDWLNGKEYKCKVSNKGLPSSIEKTISKAKGQPREPQVYTLPPSQEEMTKNQVSLWCLVKGFYPSDIAVEWESNGQPENNYKTTPPVLDSDGSFFLYSRLTVDKSRWQEGNVFSCSVMHEALHNHYTQKSLSLSLG
chain 2: EIVLTQSPATLSLSPGERATLSCRASESVDNYGMSFMNWFQQKPGQPPKLLIHAASNQGSGVPSRFSGSGSGTDFTLTISSLEPEDFAVYFCQQSKEVPYTFGGGTKVEIKGGGSGGGGQVQLVQSGAEVKKPGASVKVSCKASGYSFTSYWMNWVRQAPGQGLEWIGVIHPSDSETWLDQKFKDRVTITVDKSTSTAYMELSSLRSEDTAVYYCAREHYGTSPFAYWGQGTLVTVSSGGCGGGKVAACKEKVAALKEKVAALKEKVAALKE
heavy: QVQLVESGGGVVQPGRSLRLSCAASGFTFSSYTMHWVRQAPGKGLEWVTFISYDGSNKHYADSVKGRFTVSRDNSKNTLYLQMNSLRAEDTAIYYCARTGWLGPFDYWGQGTLVTVSSASTKGPSVFPLAPCSRSTSESTAALGCLVKDYFPEPVTVSWNSGALTSGVHTFPAVLQSSGLYSLSSVVTVPSSSLGTKTYTCNVDHKPSNTKVDKRVESKYGPPCPPCPAPEFLGGPSVFLFPPKPKDTLYITREPEVTCVVVDVSQEDPEVQFNWYVDGVEVHNAKTKPREEQFNSTYRVVSVLTVLHQDWLNGKEYKCKVSNKGLPSSIEKTISKAKGQPREPQVYTLPPSQEEMTKNQVSLSCAVKGFYPSDIAVEWESNGQPENNYKTTPPVLDSDGSFFLVSRLTVDKSRWQEGNVFSCSVMHEALHNRYTQKSLSLSLG
light: not shown

EC50 [3]: 6.56 nM
B3: PD-1 mAb 6 G4P (antibody, human IgG4 S228P, kappa, V domains shown)
VH: QVQLVQSGAEVKKPGASVKVSCKASGYSFTSYWMNWVRQAPGQGLEWIGVIHPSDSETWLDQKFKDRVTITVDKSTSTAYMELSSLRSEDTAVYYCAREHYGTSPFAYWGQGTLVTVSS
VL: EIVLTQSPATLSLSPGERATLSCRASESVDNYGMSFMNWFQQKPGQPPKLLIHAASNQGSGVPSRFSGSGSGTDFTLTISSLEPEDFAVYFCQQSKEVPYTFGGGTKVEIKR
notes: IgG4 with stabilized hinge, kappa light chain; also called the PD-1 antibody; parental anti-PD-1 antibody

binding result [4]: binds
B4: DART C (bispecific antibody)
chain 1: not shown
chain 2: EIVLTQSPATLSLSPGERATLSCRASESVDNYGMSFMNWFQQKPGQPPKLLIHAASNQGSGVPSRFSGSGSGTDFTLTISSLEPEDFAVYFCQQSKEVPYTFGGGTKVEIKGGGSGGGGQVQLVESGGGVVQPGRSLRLSCAASGFTFSSYTMHWVRQAPGKGLEWVTFISYDGSNKHYADSVKGRFTVSRDNSKNTLYLQMNSLRAEDTAIYYCARTGWLGPFDYWGQGTLVTVSSGGCGGGKVAACKEKVAALKEKVAALKEKVAALKE
notes: Four-chain Fc Region-containing diabody, two PD-1 sites (PD-1 mAb 6-ISQ) and two CTLA-4 sites (CTLA-4 mAb 3), IgG4 Fc, E/K-coils

From patent US20190161548A1 (published 2019)
